From US20240082183A1, “METHODS FOR PREVENTING OR TREATING CONDITIONS RELATED TO T CELL MEDIATED INTESTINAL DISORDERS” (The Regents of the University of Michigan, priority 2021, published 2024)

T1: Recombinant SDHB (Mus musculus, UniProt Q9CQA3)
T1 construct: purchased LSBio LS-G26026
T1 sequence (Q9CQA3 31-282): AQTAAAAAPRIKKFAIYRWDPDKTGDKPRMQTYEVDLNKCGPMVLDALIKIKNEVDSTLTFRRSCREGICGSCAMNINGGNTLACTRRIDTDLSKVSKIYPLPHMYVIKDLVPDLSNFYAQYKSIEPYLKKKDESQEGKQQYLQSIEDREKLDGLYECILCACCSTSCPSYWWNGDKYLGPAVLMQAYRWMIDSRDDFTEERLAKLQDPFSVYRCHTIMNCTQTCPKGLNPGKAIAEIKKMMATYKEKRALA

B1: GzmB: recombinant mouse Granzyme B (protein)
chain: IIGGHEVKPHSRPYMALLSIKDQQPEAICGGFLIREDFVLTAAHCEGSIINVTLGAHNIKEQEKTQQVIPMVKCIPHPDYNPKTFSNDIMLLKLKSKAKRTRAVRPLNLPRRNVNVKPGDVCYVAGWGRMAPMGKYSNTLQEVELTVQKDRECESYFKNRYNKTNQICAGDPKTKRASFRGDSGGPLVCKKVAAGIVSYGYKDGSPPRAFTKVSSFLSWIKKTMKSS
B2: GDF15: growth and differentiation factor15 that promotes the tissue tolerance (protein, UniProt Q99988 195-308, looked up)
Growth/differentiation factor …: ARARNGDHCPLGPGRCCRLHTVRASLEDLGWADWVLSPREVQVTMCIGACPSQFRAANMHAQIKTSLHRLKPDTVPAPCCVPASYNPMVLIQKTDTGVSLQTYDDLLAKDCHCI

Legend:
Recombinant SDHB = biological target: T1, Recombinant SDHB; assay: SDHA cleavage assay, cell free, recombinant SDHB control; assay type: biochemical; conditions: 90 minutes
Experimental: (§1) SDHA cleavage assay: 75 ug Isolated mitochondria in 25 ul EDB buffer (10 mM HEPES, 50 mM NaCl, 2 mM MgCl2, 5 mM EGTA and 1 mM DTT) were incubated with 75 ng mouse Granzyme B at 37 degrees and then separated by SDS-PAGE^70. Mouse recombinant SDHA protein with His Tag (LS-G26030, LSBio, Seattle, WA) and mouse recombinant SDHB protein with His Tag (LS-G26026, LSBio) in EDB buffer (25 ug in 8.3 ul) were incubated with 25 ng mouse Granzyme B at 37 degrees for 90 minutes. Proteins were then separated by SDS-PAGE and blotted with anti-His Tag antibody (LS-C60077, 1:1000, LSBio) and anti-SDHA (#ab139181, 1:1000, Abcam).

SDHA [1] = biological target: T2, SDHA (Mus musculus, UniProt Q8K2B3); assay: SDHA cleavage assay, isolated mitochondria from IECs; assay type: biochemical; design: 75 ug Isolated mitochondria in 25 ul EDB buffer; from tissue; host or cells: mitochondria isolated from mouse intestinal epithelial cells; conditions: ex vivo
Experimental: as §1

SDHA [2] = biological target: T2, SDHA; assay: SDHA cleavage assay, cell free, recombinant SDHA; assay type: biochemical; design: purchased LSBio LS-G26030; conditions: 90 minutes
Experimental: as §1

mutated SDHA protein = biological target: T3, mutated SDHA protein (Mus musculus, UniProt Q8K2B3, D241A); assay: GzmB treatment of SDHA mutated at the putative cleavage site; assay type: biochemical; conditions: 6 hours
T3 construct: host or cells: E. coli BL21 Star (DE3)
Experimental: Generation of normal SDHA protein and mutated SDHA protein: Target DNA sequence of mouse normal SDHA and mutated SDHA was optimized and synthesized (GenScript). The synthesized sequence was cloned into vector pET-30a(+) with His tag for protein expression in E. coli. E. coli strain BL21 Star™(DE3) was transformed with recombinant plasmid. A single colony was inoculated into LB medium containing related antibiotic; culture was incubated in 37° C. at 200 rpm and then induced with IPTG. SDS-PAGE was used to monitor the expression. Recombinant BL21 Star™ (DE3) stored in glycerol was inoculated into TB medium containing related antibiotic and cultured at 37° C. When the OD600 reached about 1.2, cell culture was induced with IPTG at 15° C./16 h. Cells were harvested by centrifugation. Cell pellets were resuspended with lysis buffer followed by sonication. The precipitate after centrifugation was dissolved using denaturing agent. Target protein was obtained by one-step purification using Ni column. Target protein was sterilized by 0.22 μm filter before stored in aliquots. The concentration was determined by Bradford protein assay with BSA as standard. The protein purity and molecular weight were determined by standard SDS-PAGE along with Western blot confirmation. […]

[3] = test system: primary colonic epithelial cells (PCECs); assay: Apoptosis of pre-treated PCECs induced by perforin and Granzyme B; assay type: cell-based, C57BL/6 mice; conditions: pre-treated 2 hours, then perforin and Granzyme B 4 hours
Experimental: Cell culture: C57BL/6 primary colonic epithelial cells (PCEC, C57-6047, Cell Biologics, Chicago, IL) were cultured in compete epithelial growth medium supplemented with insulin-transferrin-selenium, epidermal growth factor, glutamine, antibiotics, antimycotics and fecal bovine serum (#M6621, Cell Biologics). Cells were routinely tested for mycoplasma contamination using MycoAlert (#LT07-318, Lonza, Switzerland). Cells were treated with Mouse active perforin (#APB317Mu01, Cloud-Clone Corp., Katy, TX) and recombinant mouse Granzyme B (#140-03, PeproTech, Rocky Hill, NJ) for 4 to 6 hours in indicated concentrations following manufacturer's recommendations. Cells were incubated with GDF-15 (#8944-GD-025, 500 pg/mL, R&D Systems, Minneapolis, MN), Tiron (#172553, 10 mM, Sigma-Aldrich, St. Louis, MO), Trolox (#648471, 0.5 mM, Sigma-Aldrich), 4-Octyl itaconate (#SML2338, 0.1 mM, Sigma-Aldrich) and NAD (#N8285, 1 mM, Sigma-Aldrich).

T2 sequence (Q8K2B3 43-664): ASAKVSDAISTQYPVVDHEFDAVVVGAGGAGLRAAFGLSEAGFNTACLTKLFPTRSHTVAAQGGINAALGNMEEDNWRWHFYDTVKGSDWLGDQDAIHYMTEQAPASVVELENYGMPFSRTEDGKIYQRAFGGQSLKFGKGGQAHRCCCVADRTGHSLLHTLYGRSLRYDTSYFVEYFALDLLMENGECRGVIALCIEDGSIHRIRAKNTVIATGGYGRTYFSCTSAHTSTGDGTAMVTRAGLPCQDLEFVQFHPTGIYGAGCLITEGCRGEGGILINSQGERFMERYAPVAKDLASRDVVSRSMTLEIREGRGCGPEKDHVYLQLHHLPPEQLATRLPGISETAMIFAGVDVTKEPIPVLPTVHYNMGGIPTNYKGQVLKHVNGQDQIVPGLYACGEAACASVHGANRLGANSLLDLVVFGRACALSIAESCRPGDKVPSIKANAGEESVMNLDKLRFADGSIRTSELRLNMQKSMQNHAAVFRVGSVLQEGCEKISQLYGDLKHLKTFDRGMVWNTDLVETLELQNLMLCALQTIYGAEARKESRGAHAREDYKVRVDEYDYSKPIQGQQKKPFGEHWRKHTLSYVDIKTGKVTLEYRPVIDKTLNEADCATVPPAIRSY
T3 sequence (Q8K2B3 43-664 D241A): as the sequence (Q8K2B3 43-664) above, with D199A counted along it

| Molecule | proteolysis of recombinant SDHB (Recombinant SDHB) | proteolysis of SDHA in isolated mitochondria (SDHA [1]) | proteolysis of recombinant SDHA (SDHA [2]) | proteolysis of mutated SDHA (Ile-Glu-Asp-Gly to Ile-Glu-Ala-Gly) (mutated SDHA protein) | apoptosis of PCECs induced by GranzymeB and perforin [3] |
| --- | --- | --- | --- | --- | --- |
| B1 | not SDHB | caused proteolysis of SDHA | direct proteolysis | prevented proteolysis | – |
| B2 | – | – | – | – | did not reduce apoptosis |
